Measured values: the supplement of paper PMC7877785
± gives the uncertainty stated by the source.

Test: self-splicing fitness, log relative to wild type (ln ratio); higher = more splicing; Tetrahymena group I intron in knt gene, E. coli kanamycin selection, DiMSum; sequences stand for … in CUCUCU…GGAGGGAAAAGUUAUCAGGCAUGCACCUGGUAGCUAGUCUUUAAACCAAUAGAUUGCAUCGGUUUAAAAGGCAAGACCGUCAAAUUGCGGGAAAGGGGUCAACAGCCGUUCAGUACCAAGUCUCAGGGGAAACUUUGAGAUGGCCUUGCAAAGGGUAUGGUAAUAAGCUGACGGACAUGGUCCUAACCACGCAGCCAAGUCCUAAGUCAACAGAUCUUCUGUUGAUAUGGAUGCAGUUCACAGACUAAAUGUCGGUCGGGGAAGAUGUAUUCUUCUCAUAAGAUAUAGUCGGACCUCUCCUUAAUGGGAGCUAGCGGAUGAAGUGAUGCAACACUGGAGCCGCUGGGAACUAAUUUGUAUGCGAAAGUAUAUUGAUUAGUUUUGGAGUACUCGUGGUCG
Procedure, shortened: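 Six replicate transformations of E. coli BL21(DE3) with a pET-22b(+) library were grown overnight at 37°C or 30°C. The library randomised all eight P1ex-region intron nucleotides, the intron lying in the knt kanamycin-resistance gene, and plates were LB agar with or without 25 μg/mL kanamycin plus 100 μg/mL carbenicillin, 50 μM IPTG and 0.2% rhamnose. Pooled colonies were amplicon-sequenced on an Illumina HiSeq 2500, and fitness is the DiMSum error-weighted combination of wild-type-normalised replicate fold changes, kanamycin versus none.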

Sequence | self-splicing fitness (ln) (30 °C) | self-splicing fitness (ln) (37 °C)
UCUCAGCAAUAUUACGACAU | -2.714 ± 0.018 | -1.49 ± 0.034
UCUCAGCAAUAUUACGACGG | -0.806 ± 0.071 | -0.119 ± 0.094
UCUCAGCAAUAUUACGAGUA | -1.35 ± 0.066 | -0.132 ± 0.077
UCUCAGCAAUAUUACGAUUC | -2.66 ± 0.28 | -1.94 ± 0.27
UCUCAGCAAUAUUACGCCUU | -3.77 ± 0.33 | -2.15 ± 0.21
UCUCAGCAAUAUUACGCGCG | -2.42 ± 0.21 | -1.71 ± 0.24
UCUCAGCAAUAUUACGCGUU | -2.55 ± 0.14 | -1.55 ± 0.17
UCUCAGCAAUAUUACGCUAG | -2.76 ± 0.25 | -1.8 ± 0.25
UCUCAGCAAUAUUACGGAAC | -3.48 ± 0.41 | –
UCUCAGCAAUAUUACGGACC | – | -2.13 ± 0.34
UCUCAGCAAUAUUACGGACG | -1.84 ± 0.14 | -0.508 ± 0.13
UCUCAGCAAUAUUACGGUUA | -0.801 ± 0.083 | -0.239 ± 0.091
UCUCAGCAAUAUUACGUACG | -2.45 ± 0.14 | -1.26 ± 0.13
UCUCAGCAAUAUUACGUUAA | -2.79 ± 0.19 | -2.26 ± 0.17
UCUCAGCAAUAUUACGUUAU | -2.98 ± 0.095 | -2.8 ± 0.13
UCUCAGCAAUAUUACGUUGC | – | -2.73 ± 0.23
UCUGAGCAAUAUUACGAAAC | -2.45 ± 0.31 | –
UCUGAGCAAUAUUACGACGU | -0.648 ± 0.13 | 0.778 ± 0.13
UCUGAGCAAUAUUACGAGCA | – | -2.23 ± 0.36
UCUGAGCAAUAUUACGAGGG | -4.14 ± 0.27 | -2.5 ± 0.3
UCUGAGCAAUAUUACGAGUC | -2.7 ± 0.41 | –

Sequence | self-splicing fitness (ln) (30 °C) | self-splicing fitness (ln) (37 °C)
UCUGAGCAAUAUUACGCACA | – | -1.23 ± 0.49
UCUGAGCAAUAUUACGCAGU | -2.4 ± 0.35 | -1.08 ± 0.21
UCUGAGCAAUAUUACGCCGG | -1.96 ± 0.22 | -0.975 ± 0.24
UCUGAGCAAUAUUACGCGCU | -2.53 ± 0.28 | -1.59 ± 0.3
UCUGAGCAAUAUUACGCGGU | -2.71 ± 0.28 | -2.5 ± 0.28
UCUGAGCAAUAUUACGCUAU | -3.8 ± 0.22 | -3.15 ± 0.28
UCUGAGCAAUAUUACGGAGG | -3.34 ± 0.32 | -1.79 ± 0.27
UCUGAGCAAUAUUACGGCUC | -2.63 ± 0.22 | -2.14 ± 0.24
UCUGAGCAAUAUUACGGUAU | -2.41 ± 0.18 | -2.5 ± 0.44
UCUGAGCAAUAUUACGGUUA | -2.82 ± 0.18 | -2.05 ± 0.14
UCUGAGCAAUAUUACGGUUG | -3.75 ± 0.23 | -3.15 ± 0.3
UCUGAGCAAUAUUACGUAAC | -3.44 ± 0.33 | -1.55 ± 0.2
UCUGAGCAAUAUUACGUAGC | – | -2.04 ± 0.27
UCUGAGCAAUAUUACGUAGG | -0.323 ± 0.087 | -0.306 ± 0.13
UCUGAGCAAUAUUACGUGGC | -3.1 ± 0.25 | -1.94 ± 0.23
UCUGAGCAAUAUUACGUUGC | -3.64 ± 0.28 | –
UCUGAGCAAUAUUACGUUUA | -2.83 ± 0.17 | -2.65 ± 0.19
UCUGAGCAAUAUUACGUUUC | -2.44 ± 0.22 | -0.767 ± 0.21
UCUUAGCAAUAUUACGAAUA | -3.59 ± 0.47 | -0.936 ± 0.17
UCUUAGCAAUAUUACGAAUU | – | -2.06 ± 0.24
UCUUAGCAAUAUUACGAGAA | -2.37 ± 0.47 | –

Sequence | self-splicing fitness (ln) (30 °C) | self-splicing fitness (ln) (37 °C)
UCUUAGCAAUAUUACGAGUG | -0.964 ± 0.065 | -0.162 ± 0.097
UCUUAGCAAUAUUACGAUUC | -2.05 ± 0.44 | –
UCUUAGCAAUAUUACGCACA | -1.04 ± 0.22 | -0.879 ± 0.23
UCUUAGCAAUAUUACGCAGG | -3.45 ± 0.43 | -1.75 ± 0.38
UCUUAGCAAUAUUACGCAUA | -2.4 ± 0.26 | -1.47 ± 0.22
UCUUAGCAAUAUUACGCGCA | -0.966 ± 0.29 | -1.53 ± 0.23
UCUUAGCAAUAUUACGGAUU | -2.71 ± 0.41 | -2.22 ± 0.21
UCUUAGCAAUAUUACGGUUG | -3.34 ± 0.32 | -2.18 ± 0.43
UCUUAGCAAUAUUACGUAAG | -0.27 ± 0.09 | -0.314 ± 0.13
UCUUAGCAAUAUUACGUAUA | – | -3.28 ± 0.3
UCUUAGCAAUAUUACGUCAA | -2.43 ± 0.25 | -2.6 ± 0.44
UCUUAGCAAUAUUACGUGAG | -0.751 ± 0.079 | -0.366 ± 0.14
UCUUAGCAAUAUUACGUGCG | -2.14 ± 0.15 | -1.67 ± 0.2
UCUUAGCAAUAUUACGUUGU | -3.61 ± 0.19 | -1.24 ± 0.14
UCUUAGCAAUAUUACGUUUA | -2.75 ± 0.33 | -2.57 ± 0.32
UCUUAGCAAUAUUACGUUUU | – | -1.8 ± 0.23
UGAAAGCAAUAUUACGACUG | 0.192 ± 0.1 | 0.249 ± 0.12
UGAAAGCAAUAUUACGAGCU | -1.42 ± 0.14 | -0.746 ± 0.17
UGAAAGCAAUAUUACGAGUG | -0.522 ± 0.069 | 0.0623 ± 0.11
UGAAAGCAAUAUUACGAUCU | -0.256 ± 0.083 | 0.425 ± 0.11
UGAAAGCAAUAUUACGAUUA | -0.302 ± 0.065 | 0.211 ± 0.096

Sequence | self-splicing fitness (ln) (30 °C) | self-splicing fitness (ln) (37 °C)
UGAAAGCAAUAUUACGCAAG | -2.4 ± 0.15 | -2 ± 0.2
UGAAAGCAAUAUUACGCACA | -0.903 ± 0.15 | 0.683 ± 0.15
UGAAAGCAAUAUUACGCCAG | -0.985 ± 0.12 | -0.807 ± 0.12
UGAAAGCAAUAUUACGCCGU | -2.92 ± 0.29 | -1 ± 0.16
UGAAAGCAAUAUUACGCCUC | -1.85 ± 0.28 | –
UGAAAGCAAUAUUACGCGAU | -2.15 ± 0.14 | -2.37 ± 0.19
UGAAAGCAAUAUUACGCUAA | -1 ± 0.12 | -0.805 ± 0.13
UGAAAGCAAUAUUACGCUAG | -1.59 ± 0.15 | 0.503 ± 0.15
UGAAAGCAAUAUUACGGCAU | -1.43 ± 0.076 | -0.236 ± 0.1
UGAAAGCAAUAUUACGGGUU | -4.06 ± 0.27 | -2.06 ± 0.19
UGAAAGCAAUAUUACGGUAA | -1.02 ± 0.085 | -0.765 ± 0.078
UGAAAGCAAUAUUACGUAGA | -1.88 ± 0.097 | -1.56 ± 0.15
UGAAAGCAAUAUUACGUAGG | -0.728 ± 0.095 | -0.459 ± 0.14
UGAAAGCAAUAUUACGUUCC | -1.36 ± 0.11 | -0.98 ± 0.13
UGACAGCAAUAUUACGAAUA | -1.26 ± 0.13 | -0.589 ± 0.14
UGACAGCAAUAUUACGACAC | -0.678 ± 0.12 | -2.04 ± 0.17
UGACAGCAAUAUUACGACCC | -1.52 ± 0.2 | -1.01 ± 0.25
UGACAGCAAUAUUACGACGA | -0.0144 ± 0.099 | 0.355 ± 0.13
